Measurements: patent US20210284749A1 (ABL BIO, published 2021)

Columns and labels:
[1] = biological target: T1, recombinant human BCMA (ELISA antigen, construct not specified) (human, UniProt Q02223 1-54); test: ELISA on coated recombinant human BCMA, antibody titrated, HRP anti-Fab detection, absorbance 450 nm
T1 construct: Fc 1-51; Fc/His 1-51; Fc 4-48) was coated in these ELISAs; also called recombinant BCMA; recombinant protein
T1 sequence: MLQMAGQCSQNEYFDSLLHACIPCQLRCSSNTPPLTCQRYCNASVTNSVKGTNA
Protocol: Specific binding abilities of the anti-BCMA IgG antibodies isolated in Example 1.4 to recombinant BCMA protein were analyzed by ELISA.
Using recombinant human BCMA or monkey BCMA as an antigen, and HRP-conjugated Fab polychronal antibody reagent (Pierce, 31414) as a secondary antibody, ELISA was performed as described in Example 1.3.

[2] = biological target: T2, human BCMA-Fc/His (1-51) (human, UniProt Q02223 1-51); test: BLI (Octet), antigen on Ni-NTA biosensor, IgG in solution
T2 construct: also called recombinant human BCMA-Fc/His; recombinant human BCMA-His (Sino Biological Inc.); not shown: Fc region; C-terminal His tag
T2 sequence: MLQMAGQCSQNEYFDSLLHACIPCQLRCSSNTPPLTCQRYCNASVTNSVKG
Protocol: A 96-well black microplate was mounted on a Biosensor tray case, 200 μl of 1XKB was added to each of the 8 wells, and then 8 Ni-NTA biosensors (Fortebio) were inserted thereto for hydration for 10 minutes. For antigen fixation, 5 μg/ml of recombinant human BCMA-His (Sino Biological Inc.) was diluted using 1XKB. Experiments were performed with a threshold of 0.5 to 1.0 nm, and Octet Data Acquisition 9.0 software was activated to create an Octet program template. The first step was for Baseline 1, the second step was for loading, and the threshold was fixed to 0.5 to 1.0 nm. In the third step, which was for Baseline 2, association for 5 minutes and dissociation for 20 minutes were performed. A plate temperature was fixed to 30° C., and the prepared buffer solution was placed in order into a new 96-well black microplate according to the Octet program template. 200 μl of 1XKB used as Baseline 1 and recombinant human BCMA-Fc/His which is an antigen to be loaded were diluted to 5 μg/ml, and 200 μl of the dilution was added thereto. After adding 200 μl of 1XKB used as Baseline 2, 200 μl of the antibody to be reacted with the antigen was dispensed, and the instrument was operated. After completion of the experiment, an association constant (kon), a dissociation constant (kdis), and an equilibrium dissociation constant (KD) for each antibody were analyzed and calculated with Octet Analysis 9.0 software.

[3] = biological target: T3, human monomeric BCMA antigen (human, UniProt Q02223 5-54, limits assumed); test: SPR (Biacore T200), antibody captured on protein A chip, antigen 6.25-100 nM
T3 construct: also called recombinant human BCMA antigens
T3 chain: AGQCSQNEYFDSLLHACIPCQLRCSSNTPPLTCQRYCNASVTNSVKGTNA
Protocol: In particular, the prepared antibodies were diluted with a 1×HPS-EP buffer (GE Healthcare, BR-1006-69). The target antigen-binding affinity analysis was performed using a Biacore T200 (GE Healthcare). The antibodies were flowed onto a protein A chip at a contact time of 60 seconds, a stabilization time of 30 seconds, and a flow rate of 30 μl/min until a capture level reached 128 RU (Response Unit), thereby preparing an antibody-captured protein A chip.
The antigen was sequentially diluted with a 1×HPS-EP buffer, by 2-fold each time, from 100 nM to 6.25 nM, thereby preparing a total of […] samples. The 1×HPS-EP buffer was used as a negative control group (blank).
The prepared antigen was flowed across the antibody-captured protein A chip at a flow rate of 30 μl/min for an association time of 60 seconds, followed by a disassociation phase for 180 seconds. Regeneration was performed with a 10-mM Glycine-HCL (pH 1.5) buffer (GE Healthcare, BR-1003-54) at a flow rate of 30 μl/min for a contact time of 30 seconds.

[4] = biological target: T1, recombinant human BCMA (ELISA antigen, …); test: ELISA on recombinant BCMA
[5] = biological target: T4, human BCMA expressed on cell surface (H929, OPM-2, CHOK1-hBCMA cells) (human, UniProt Q02223 1-184); test: FACS on H929 cells
T4 construct: also called cell-surface BCMA; BCMA on cell surface
T4 sequence: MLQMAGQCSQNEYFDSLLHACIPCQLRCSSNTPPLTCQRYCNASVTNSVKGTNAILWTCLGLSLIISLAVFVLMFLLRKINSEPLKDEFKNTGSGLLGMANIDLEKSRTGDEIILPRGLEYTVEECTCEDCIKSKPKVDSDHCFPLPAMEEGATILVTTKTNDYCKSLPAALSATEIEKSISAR

B1: anti-BCMA IgG antibody 2C6 (antibody, V domains shown)
VH: EVQLLESGGGLVQPGGSLRLSCAASGFTFSNYGMSWVRQAPGKGLEWVSSIDYNGSTYYNPSLKSRFTISRDNSKNTLYLQMNSLRAEDTAVYYCAKEHGLFDSWGQGTLVTVSS
VL: EIVLTQSPGTLSLSPGERATLSCRVSQSISSYLNWYQQKPGQAPRLLIYDASTRAIGIPDRFSGSGSGTDFTLTISRLEPEDFAVYYCQQVNSYPITFGQGTKVEIKR
Q: What does the source list for B1?
A: EC50 (read off the curve) [1]: ~0.05 µg/mL; Kd [2]: 0.37 nM; koff [2]: 0.000403 s⁻¹; kon [2]: 1.09e+06 M⁻¹ s⁻¹

B2: mutant antibody 5A6 LM6 (antibody, V domains shown)
VH: EVQLLESGGGLVQPGGSLRLSCAASGFTFSNYGVHWVRQAPGKGLEWVSYISYSGGTYYNPSLKSRFTISRDNSKNTLYLQMNSLRAEDTAVYYCARDSDDFGFDYWGQGTLVTVSS
VL: QSVLTQPPSASGTPGQRVTISCQGESLRSYYVNWYQQLPGTAPKLLIYDHSKRPTGVPDRFSGSKSGTSASLAISGLRSEDEADYYCQSYDASTVVFGGGTKLTVLG
notes: Light chain CDR mutant of 5A6 (IgG1); heavy chain as 5A6
Q: What does the source list for B2?
A: Kd [3]: 18.1 nM; koff [3]: 0.00922 s⁻¹; kon [3]: 509000 M⁻¹ s⁻¹; EC50 [4]: 0.0537 nM; MFI [5]: 78.9

B3: mutant antibody 5D5 LM4 (antibody, V domains shown)
VH: EVQLLESGGGLVQPGGSLRLSCAASGFTFSDYGLSWVRQAPGKGLEWVSLIDSSGSSTFYADSVKGRFTISRDNSKNTLYLQMNSLRAEDTAVYYCAKEHGLFDSWGQGTLVTVSS
VL: EIVLTQSPGTLSLSPGERATLSCKASQDIDDAINWYQQKPGQAPRLLIYDASLRATGIPDRFSGSGSGTDFTLTISRLEPEDFAVYYCQQSLRTPITFGQGTKLEIKR
notes: Light chain CDR mutant of 5D5 (IgG1); heavy chain as 5D5
Q: What does the source list for B3?
A: Kd [3]: 14.2 nM; koff [3]: 0.0594 s⁻¹; kon [3]: 4.17e+06 M⁻¹ s⁻¹; EC50 [4]: 0.0708 nM; MFI [5]: 62.3

B4: mutant antibody 5A6 LM1 (antibody, V domains shown)
VH: EVQLLESGGGLVQPGGSLRLSCAASGFTFSNYGVHWVRQAPGKGLEWVSYISYSGGTYYNPSLKSRFTISRDNSKNTLYLQMNSLRAEDTAVYYCARDSDDFGFDYWGQGTLVTVSS
VL: QSVLTQPPSASGTPGQRVTISCQGESLRSYYVNWYQQLPGTAPKLLIYDHSKRPTGVPDRFSGSKSGTSASLAISGLRSEDEADYYCQSYDSSTVVFGGGTKLTVLG
notes: as for B2
Q: B4 was tested. Which EC50 [4] did it give?
A: Its EC50 is 0.0818 nM.

Q: What about the MFI [5] of the same binder?
A: Its MFI is 83.4.

B5: mutant antibody 5A6 LM2 (antibody, V domains shown)
VH: EVQLLESGGGLVQPGGSLRLSCAASGFTFSNYGVHWVRQAPGKGLEWVSYISYSGGTYYNPSLKSRFTISRDNSKNTLYLQMNSLRAEDTAVYYCARDSDDFGFDYWGQGTLVTVSS
VL: QSVLTQPPSASGTPGQRVTISCQGDALRSYYVNWYQQLPGTAPKLLIYDHSKRPTGVPDRFSGSKSGTSASLAISGLRSEDEADYYCQSYDSSTVVFGGGTKLTVLG
notes: as for B2
Q: Which results are given for B5?
A: EC50 [4]: 0.0509 nM; MFI [5]: 66.7

B6: mutant antibody 5A6 LM3 (antibody, V domains shown)
VH: EVQLLESGGGLVQPGGSLRLSCAASGFTFSNYGVHWVRQAPGKGLEWVSYISYSGGTYYNPSLKSRFTISRDNSKNTLYLQMNSLRAEDTAVYYCARDSDDFGFDYWGQGTLVTVSS
VL: QSVLTQPPSASGTPGQRVTISCQGDSLRSYYVNWYQQLPGTAPKLLIYDHSKRPTGVPDRFSGSKSGTSASLAISGLRSEDEADYYCQSYESSTVVFGGGTKLTVLG
notes: as for B2
Q: With B6 as the binder, how does the EC50 [4] read?
A: The EC50 was 0.133 nM.

Q: And the MFI [5]?
A: Its MFI is 84.6.

B7: mutant antibody 5A6 LM4 (antibody, V domains shown)
VH: EVQLLESGGGLVQPGGSLRLSCAASGFTFSNYGVHWVRQAPGKGLEWVSYISYSGGTYYNPSLKSRFTISRDNSKNTLYLQMNSLRAEDTAVYYCARDSDDFGFDYWGQGTLVTVSS
VL: QSVLTQPPSASGTPGQRVTISCQGDSLRSYYVNWYQQLPGTAPKLLIYDHSKRPTGVPDRFSGSKSGTSASLAISGLRSEDEADYYCQSYDASTVVFGGGTKLTVLG
notes: as for B2
Q: What does the source list for B7?
A: EC50 [4]: 0.0823 nM; MFI [5]: 77.1

B8: mutant antibody 5A6 LM5 (antibody, V domains shown)
VH: EVQLLESGGGLVQPGGSLRLSCAASGFTFSNYGVHWVRQAPGKGLEWVSYISYSGGTYYNPSLKSRFTISRDNSKNTLYLQMNSLRAEDTAVYYCARDSDDFGFDYWGQGTLVTVSS
VL: QSVLTQPPSASGTPGQRVTISCQGESLRSYYVNWYQQLPGTAPKLLIYDHSKRPTGVPDRFSGSKSGTSASLAISGLRSEDEADYYCQSYESSTVVFGGGTKLTVLG
notes: as for B2
Q: For B8, which EC50 [4] is on record?
A: The EC50 was 0.103 nM.

Q: What about the MFI [5] of the same binder?
A: The MFI was 81.4.

B9: mutant antibody 5A6 LM7 (antibody, V domains shown)
VH: EVQLLESGGGLVQPGGSLRLSCAASGFTFSNYGVHWVRQAPGKGLEWVSYISYSGGTYYNPSLKSRFTISRDNSKNTLYLQMNSLRAEDTAVYYCARDSDDFGFDYWGQGTLVTVSS
VL: QSVLTQPPSASGTPGQRVTISCQGDALRSYYVNWYQQLPGTAPKLLIYDHSKRPTGVPDRFSGSKSGTSASLAISGLRSEDEADYYCQSYESSTVVFGGGTKLTVLG
notes: as for B2
Q: B9 was tested. Which EC50 [4] did it give?
A: Its EC50 is 0.105 nM.

Q: And the MFI [5]?
A: Its MFI is 71.1.

B10: mutant antibody 5A6 LM8 (antibody, V domains shown)
VH: EVQLLESGGGLVQPGGSLRLSCAASGFTFSNYGVHWVRQAPGKGLEWVSYISYSGGTYYNPSLKSRFTISRDNSKNTLYLQMNSLRAEDTAVYYCARDSDDFGFDYWGQGTLVTVSS
VL: QSVLTQPPSASGTPGQRVTISCQGDALRSYYVNWYQQLPGTAPKLLIYDHSKRPTGVPDRFSGSKSGTSASLAISGLRSEDEADYYCQSYDASTVVFGGGTKLTVLG
notes: as for B2
Q: Which EC50 [4] does the source give for B10 here?
A: The EC50 was 0.068 nM.

Q: What about the MFI [5] of the same binder?
A: Its MFI is 68.6.

B11: mutant antibody 5D5 LM1 (antibody, V domains shown)
VH: EVQLLESGGGLVQPGGSLRLSCAASGFTFSDYGLSWVRQAPGKGLEWVSLIDSSGSSTFYADSVKGRFTISRDNSKNTLYLQMNSLRAEDTAVYYCAKEHGLFDSWGQGTLVTVSS
VL: EIVLTQSPGTLSLSPGERATLSCKASQDIDNDINWYQQKPGQAPRLLIYDASLRATGIPDRFSGSGSGTDFTLTISRLEPEDFAVYYCQQSLRTPITFGQGTKLEIKR
notes: as for B3
Q: With B11 as the binder, how does the EC50 [4] read?
A: The EC50 was 0.0939 nM.

Q: And the MFI [5]?
A: Its MFI is 32.

B12: mutant antibody 5D5 LM2 (antibody, V domains shown)
VH: EVQLLESGGGLVQPGGSLRLSCAASGFTFSDYGLSWVRQAPGKGLEWVSLIDSSGSSTFYADSVKGRFTISRDNSKNTLYLQMNSLRAEDTAVYYCAKEHGLFDSWGQGTLVTVSS
VL: EIVLTQSPGTLSLSPGERATLSCKASQDIDEDINWYQQKPGQAPRLLIYDASLRATGIPDRFSGSGSGTDFTLTISRLEPEDFAVYYCQQSLRTPITFGQGTKLEIKR
notes: as for B3
Q: B12 was tested. Which EC50 [4] did it give?
A: The EC50 was 0.0858 nM.

Q: What about the MFI [5] of the same binder?
A: The MFI was 29.

B13: mutant antibody 5D5 LM3 (antibody, V domains shown)
VH: EVQLLESGGGLVQPGGSLRLSCAASGFTFSDYGLSWVRQAPGKGLEWVSLIDSSGSSTFYADSVKGRFTISRDNSKNTLYLQMNSLRAEDTAVYYCAKEHGLFDSWGQGTLVTVSS
VL: EIVLTQSPGTLSLSPGERATLSCKASQDIDADINWYQQKPGQAPRLLIYDASLRATGIPDRFSGSGSGTDFTLTISRLEPEDFAVYYCQQSLRTPITFGQGTKLEIKR
notes: as for B3
Q: How did the EC50 [4] turn out when B13 was run?
A: Its EC50 is 0.0593 nM.

Q: What about the MFI [5] of the same binder?
A: Its MFI is 31.5.

B14: mutant antibody 5D5 LM5 (antibody, V domains shown)
VH: EVQLLESGGGLVQPGGSLRLSCAASGFTFSDYGLSWVRQAPGKGLEWVSLIDSSGSSTFYADSVKGRFTISRDNSKNTLYLQMNSLRAEDTAVYYCAKEHGLFDSWGQGTLVTVSS
VL: EIVLTQSPGTLSLSPGERATLSCKASQDIDDEINWYQQKPGQAPRLLIYDASLRATGIPDRFSGSGSGTDFTLTISRLEPEDFAVYYCQQSLRTPITFGQGTKLEIKR
notes: as for B3
Q: With B14 as the binder, how does the EC50 [4] read?
A: Its EC50 is 0.0763 nM.

Q: And the MFI [5]?
A: The MFI was 73.6.
